The text below walks through data of US20090226415A1, “MODIFIED TRIDEGINS, PRODUCTION AND USE THEREOF AS TRANSGLUTAMINASE INHIBITORS” (priority 2001, published 2009).

One may read the IC50 as the point on the concentration scale where inhibition reaches its midpoint.

Data set [1] addresses T1, factor XIIIa (Homo sapiens, UniProt P00488).
T1 sequence (P00488 39-732 limits assumed): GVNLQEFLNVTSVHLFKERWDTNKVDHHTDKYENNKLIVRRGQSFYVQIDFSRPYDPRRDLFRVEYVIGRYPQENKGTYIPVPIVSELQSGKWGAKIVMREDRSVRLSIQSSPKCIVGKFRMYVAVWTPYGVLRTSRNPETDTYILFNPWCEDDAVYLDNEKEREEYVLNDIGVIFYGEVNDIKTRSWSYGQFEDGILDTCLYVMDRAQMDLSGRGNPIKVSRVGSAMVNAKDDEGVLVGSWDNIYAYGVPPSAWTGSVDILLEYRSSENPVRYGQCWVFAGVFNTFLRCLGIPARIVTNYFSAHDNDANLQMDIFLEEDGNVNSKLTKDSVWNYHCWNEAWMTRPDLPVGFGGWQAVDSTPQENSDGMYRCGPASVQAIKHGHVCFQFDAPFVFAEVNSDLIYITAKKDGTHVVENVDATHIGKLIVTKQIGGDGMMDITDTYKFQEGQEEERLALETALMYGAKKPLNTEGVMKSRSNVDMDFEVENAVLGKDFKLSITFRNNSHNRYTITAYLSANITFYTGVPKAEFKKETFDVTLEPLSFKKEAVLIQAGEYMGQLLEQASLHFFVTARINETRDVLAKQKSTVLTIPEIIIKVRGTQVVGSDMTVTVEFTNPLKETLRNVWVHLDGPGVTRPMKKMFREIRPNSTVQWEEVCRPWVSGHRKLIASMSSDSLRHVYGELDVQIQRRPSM
Particulars: Table 1, published inhibitors of factor XIIIa; read-out: Affinity (IC50); cited from earlier work.

Data set [2] in a line: Analytical gel filtration run for multimeric, high molecular weight aggregates. The data set is classed as physicochemical. To be noted: 20 mM sodium phosphate, pH 8.0, 300 mM NaCl. From the text:
These modified tridegins were produced by site-directed mutagenesis of the cysteines present in the wild-type tridegin. The aim of this mutagenesis was to replace, in a step-wise manner, the cysteine residues which are suitable for forming intermolecular disulfide bridges. The tendency to form disulfide bridges, and the aggregation of the end product which accompanies it, were detected by carrying out appropriate chromatographic analyses of the original transglutaminase inhibitor (SEQ ID No. 1) in the presence or absence of reducing agents (e.g. mercaptoethanol and DTT). Thus, in one gel filtration run (on an Amersham-Pharmacia HiPrep 26/60 Sephacryl S200 HR column; 20 mM sodium phosphate, pH 8.0, 300 mM NaCl; 1 ml/min) the purified, recombinant tridegin polypeptide had approximately an 80% content of multimeric, high molecular weight aggregates.
(SEC sorts molecules by how far they enter the pores of the column.)

The subject of the next data set is whole citrate blood. Description: Thrombelastography (ROTEG) of coagulation and fibrinolysis in whole citrate blood. Set-up: species or system human. From the text: To do this, what are termed thrombelasto-grams were plotted. Thrombelastography is a current method for measuring coagulation and fibrinolysis. The method measures the change in the viscosity of the blood by the change in the resistance to rotation of a plunger which is present in the blood (Calatzis et al., 2000). […] Thrombelastograms quantify important parameters of haemostasis: • clotting time (time between the initiation of coagulation and the beginning of a measurable change in the viscosity of the blood, CT) • stability of the thrombus (maximum amplitude, maximum clot firmness, MCF) • fibrinolysis time (time between the beginning of a measurable change in blood viscosity and achievement of the starting value prior to the clotting, lysis time, LT).
The ROTEG® instrument supplied by Pentapharm GmbH, Munich, was used for the measurements which are shown. FIGS. 5 and 6 show the thrombelastograms of whole citrate blood after the addition of Ca^2+ (Starteg reagent, from Pentapharm GmbH) and thromboplastin phospholipid (Integ reagent, from Pentapharm GmbH). These reagents are used to induce coagulation. […] This is made clear by […]

Data set [3] concerns the target T1, factor XIIIa. Nature of the data set: biochemical. It counts as biochemical. Particulars: for Relative inhibitory effect (%): final variant concentration 5.45 μM. As for the experimental part:
The assay is based on factor XIII being activated to form factor XIIIa by thrombin which is present in the reagents. Factor XIIIa links a specific peptide substrate to glycine ethyl ester with ammonium ions being released. The latter are determined in an enzyme reaction which proceeds in parallel. The extinction at 340 nm was used to measure the decrease in NADH. For the measurement, peptides were present in 50% acetonitrile in a stock concentration of 5 mM. The NADH and detection reagents which were supplied by the manufacturer were dissolved in 3 ml of water, with the activator reagent subsequently being dissolved in 3 ml of NADH reagent. For use, the activator and detection reagents were mixed in a ratio of 1:1. In order to carry out the measurement in microtiter plate format, 100 μl of sample (inhibitor or control buffer), 25 μl of factor XIII (10 U/ml) and 150 μl of working reagent were mixed. The measurement was carried out continuously for 20 min at 340 nm, and at 37° C., in a microtiter plate photometer. For the evaluation, the differences in the values measured after 16 and 20 min were compared.
The relative inhibitory effect (%) was determined at a final variant concentration of 5.45 μM. The inhibitory effect of the recombinant tridegin polypeptide was normalized to 100% (at 5.45 μM).
The above-described Berichrom® assay was used to determine the relative inhibitory effect (%) at a final concentration of the peptides of 7.27 μM. The inhibitory effect of the recombinant tridegin polypeptide, at a final concentration of 7.27 μM, was normalized to 100%.
The relative inhibitory effect (%) was determined at a final variant concentration of 5.45 μM. The inhibitory effect of the recombinant wild-type tridegin poly-peptide (at 5.45 μM) was normalized to 100%. The oligonucleotides which were used to produce the abovementioned variants are also specified in the table.

Where [4] appears, read: Table 4, Cys variants, wild-type tridegin polypeptide normalized to 100%.

Where a chain is given by its changes, count along the chain named. Numbers in names are those of the source. Where two headings read alike, the source gives them in different places.

`C/C=C/C/C=C/CCC(=O)[C@H]1O[C@H]1C(N)=O` [Cerulenin]: at factor XIIIa [1], the IC50 is 29 µM.

In the case of `C[C@@H]1CCC/C=C\C(=O)Cc2cc(O)cc(O)c2C(=O)O1` [ZG-1400], the concentration for half-maximal inhibition (IC50) at factor XIIIa [1] was 5.7 µM.

B1: SEQ ID No. 1: recombinant wild-type tridegin polypeptide expressed in and purified from Escherichia coli (protein)
chain: MKLLPCKEWHQGIPNPRCWCGADLECAQDQYCAFIPQCRPRSELIKPMDDIYQRPVEFPNLPLKPREE
B1: the “content of multimeric, high molecular weight aggregates” value in data set [2] (Sephacryl S200 HR, no reducing agent) is around 80%. In data set [2] (reducing conditions: 1.5 mM DTT), the “content of the aggregates” value is given as below 20%. Also, the “clotting time (CT)” value in the data set with whole citrate blood (FIG. 5 A and B, 190 seconds in the absence of inhibitor) is 380 s. Also, the “effect on fibrinolysis brought about by tPA and urokinase” value in the data set with whole citrate blood (lower amplitude and increased rate of fibrinolysis) is “accelerate and improve the fibrinolysis”. Besides, the “Relative inhibitory effect (%)” value with factor XIIIa [3] (Table 2, recombinant tridegin polypeptide normalized to 100%) is 100%; in the data set with factor XIIIa [3] (setting [4]), 100%. For the same molecule, the IC50 with factor XIIIa [3] (purified recombinant tridegin polypeptide from Escherichia coli, FIG. 3) lay in the range of 2 to 4 µM.

B2: C32A: tridegin modified by replacement of a cysteine residue, expressed in Escherichia coli (protein)
chain: B1 chain with C32A
With B2, the “Relative inhibitory effect (%)” value with factor XIIIa [3] (setting [4]) turned out to be 86%.

B3: C26A; +C38A: tridegin modified by replacement of two cysteine residues, expressed in Escherichia coli (protein)
chain: B1 chain with C26A, C38A
In the case of B3, the “Relative inhibitory effect (%)” value with factor XIIIa [3] (setting [4]) was 80%.
